According to publication PMC2193935 (The Journal of Experimental Medicine, 2002):

Biological target: the molecule itself
Experiment: SDS-PAGE under non-reducing and reducing conditions with Western blot

B1: Epo-Fc/IHH (Epo-Fc with three inactivating point mutations in the FcRn-binding site of the Fc domain) (Fc fusion)
chain: APPRLICDSRVLERYILEAKEAENVTMGCAEGPRLSENITVPDTKVNFYAWKRMEVEEQAIEVWQGLSLLSEAILQAQALLANSSQPPETLQLHIDKAISGLRSLTSLLRVLGAQKELMSPPDTTPPAPLRTLTVDTFCKLFRVYANFLRGKLKLYTGEVCRRGDRGGSGGSVPRDCGCKPCICTVPEVSSVFIFPPKPKDVLTATLTPKVTCVVVDISKDDPEVQFSWFVDDVEVHTAQTQPREEQFNSTFRSVSELPIMAQDWLNGKEFKCRVNSAAFPAPIEKTISKTKGRPKAPQVYTIPPPKEQMAKDKVSLTCMITDFFPEDITVEWQWNGQPAENYKNTQPIMNTNGSYFVYSKLNVQKSNWEAGNTFTCSVLHEGLHNAHTEKSLSHSPGK
modifications: glycosylated (oligosaccharides cleaved by PNGase F)
stoichiometry N: 2
